Columns and labels:
[1] = target: HLA-A*02:01 (human)
[2] = target: QuickSwitch Quant HLA-A*02:01 Tetramers (PE or APC labeled) (MBL International), A*02:0; experiment: QuickSwitch Quant tetramer control peptide exchange

Row | Binder | EpiScan MFI [1] | % Peptide Exchange [2] [%]
1 | AMDEFIERYKL (modifications not checked) | 2.35 | 96.9
2 | SLPGVFCGV (modifications not checked) | 6.42 | 98
3 | YIDIGNYTV (modifications not checked) | 4.42 | 97.9
4 | VMVELVAEL (modifications not checked) | 5.34 | 98.6
5 | VLYQDVNCTEV (modifications not checked) | 5.6 | 97.9
6 | VMAYITGGVV (modifications not checked) | 4.64 | 99.1
7 | VMAYITGGV (modifications not checked) | 4.53 | 99.1
8 | TLATHGLAAV (modifications not checked) | 4.04 | 98

— patent US20230035859A1, “COMPOSITIONS AND METHODS FOR EPITOPE SCANNING” (priority 2019, published 2023)
